For assay [1], the target named is exemplary anti-ROR1 (ROR 1-1) chimeric antigen receptor. Description: cell-based or functional assay.
For assay [2] the target is unchanged. Put plainly: cell-based or functional assay. This is another data set of the same source.

Chain of exemplary anti-ROR1 (ROR 1-1) chimeric antigen receptor (chain, as listed by the source mutant limits assumed): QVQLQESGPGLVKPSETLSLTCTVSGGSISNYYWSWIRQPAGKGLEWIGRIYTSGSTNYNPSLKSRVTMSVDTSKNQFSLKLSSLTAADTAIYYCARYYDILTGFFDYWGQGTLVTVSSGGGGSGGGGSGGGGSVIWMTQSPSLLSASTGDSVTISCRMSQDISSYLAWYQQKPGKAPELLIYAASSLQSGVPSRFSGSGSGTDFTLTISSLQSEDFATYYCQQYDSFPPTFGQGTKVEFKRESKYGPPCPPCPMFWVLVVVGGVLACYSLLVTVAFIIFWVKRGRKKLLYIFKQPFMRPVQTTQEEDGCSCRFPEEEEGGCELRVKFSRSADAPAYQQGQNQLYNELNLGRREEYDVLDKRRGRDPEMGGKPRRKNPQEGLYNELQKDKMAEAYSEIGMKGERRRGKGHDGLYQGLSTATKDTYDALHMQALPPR

B1: anti-idiotype antibody clone F101 (antibody, mouse IgG1, kappa, V domains shown)
VH: QVQFQQSGAELARPGASVKLSCKASGYTFTSYWMQWVKQRPGQGLEWIGTIYPGDGDARYSQKFKGKATLTADKSSSTAYMQLSSLASEDSAVYYCTRRRGYDAMDYWGQGTSVTVSS
VL: NIVLTQSPASLAVSLGQRATISCRASESVDSYGSSFMHWYQEKPGQPPKLLIFLASNLESGVPARFSGSGSRTDFTLTIDPVEADDAATYYCQQNNEDPNMYTFGGGTKLEIRR
B1: in assay [1], the “% Nur77-TdT of EGFRt+ cells, soluble antibody 0.3 ug/mL” value was 11.4%; the “% Nur77-TdT of EGFRt+ cells, soluble antibody 0.6 ug/mL” value is 11.8%; the “% Nur77-TdT of EGFRt+ cells, soluble antibody 10 ug/mL” value was 11.7%. In addition, the “% Nur77-TdT of EGFRt+ cells, plate coated with 5 ug/ml antibody” value (from here on “% Nur77-TdT … with 5 ug/ml antibody”) in assay [2] stood at 89.8%.

B2: anti-idiotype antibody clone F112 (antibody, mouse IgG1, V domains shown)
VH: QVQLQQPGAELVRPGASVKLSCKASGYPFTSYWINWVKQRPGQGLEWIGMIDPSDSETHYNQMFKDKATLTVDRSSSTAYMHLSSLTSEDSAVYYCARGGIRDYWGQGTTLTVSS
VL: QAVVTQESALTTSPGETVTLTCRSSTGAVTTSNYANWVQEKSDHLFTGLIGGTNNRAPGVPARFSGSLIGDKAALTITGAQTEDEAIYFCALWYSNHWVFGGGTKLTVLG
As for B2, in assay [1], the “% Nur77-TdT of EGFRt+ cells, soluble antibody 0.3 ug/mL” value worked out at 38.3%; the “% Nur77-TdT of EGFRt+ cells, soluble antibody 0.6 ug/mL” value amounted to 41.3%; the “% Nur77-TdT of EGFRt+ cells, soluble antibody 10 ug/mL” value came to 43.2%. Further, in assay [2], the “% Nur77-TdT … with 5 ug/ml antibody” value turned out to be 83.9%.

B3: anti-idiotype antibody clone F107 (antibody, mouse IgG1, kappa, V domains shown)
VH: QVTLKESGPGILKPSQTLSLTCSFSGFSLNTFGMGVGWIRQPSGKGLEWLAHIWWDDDKHYHPSLKSQLTISKDTSRNQVFLKITSVDTTDTATYYCVRRYRYDVFDYWGPGTTLTVSS
VL: DVMMTQTPLSLPVSLGDQASISCRSSQSLVHSNGNTYLHWYLQKPGQSPKLLIYKVSNRFSGVPDRFSGSGSGTDFTLKISRVEAEDLGVYFCSQSTHGPWTFGGGTKLEIKR
Turning to B3, in assay [1], the “% Nur77-TdT of EGFRt+ cells, soluble antibody 0.3 ug/mL” value was 15.6%; the “% Nur77-TdT of EGFRt+ cells, soluble antibody 0.6 ug/mL” value was found to be 19.9%; the “% Nur77-TdT of EGFRt+ cells, soluble antibody 10 ug/mL” value worked out at 28.3%. Further, the “% Nur77-TdT … with 5 ug/ml antibody” value in assay [2] amounted to 85%.

The values are drawn from patent US20230324408A1 (JUNO THERAPEUTICS, published 2023).
